# Several values for one entry are separate records, joined by “and”; a condition that tells them apart may be missing. Equal entries are not always repeated. Where two headings read alike, the source gives them in different places.
# Columns and labels:
# [1] = tested on: Bat-Hp-CoV NSP1;human 40S ribosomal subunit (Bat-Hp-CoV;Homo sapiens); experiment: single-molecule fluorescence (ZMW)
# [2] = target: SARS-CoV-2 NSP1 (ybbR-NSP1) WT;human 40S ribosomal subunit (SARS-CoV-2;Homo sapiens) (UniProt P0DTD1); experiment: single-molecule fluorescence (ZMW)
# [3] = target: SARS-CoV NSP1;human 40S ribosomal subunit (SARS-CoV;Homo sapiens) (UniProt P0C6X7); experiment: single-molecule fluorescence (ZMW)
# [4] = target: MERS-CoV NSP1;human 40S ribosomal subunit (MERS-CoV;Homo sapiens) (UniProt K9N7C7); experiment: single-molecule fluorescence (ZMW)
# [5] = target: SARS-CoV-2 NSP1 (ybbR-NSP1) WT;human 40S ribosomal subunit;eIF1, eIF1A, eIF5, eIF3 lacking 3j, TC-GMPPNP (eIF2, Met-tRNAi) (SARS-CoV-2;Homo sapiens;Homo sapiens) (UniProt P0DTD1); experiment: single-molecule fluorescence (ZMW)
# [6] = target: SARS-CoV-2 NSP1 (ybbR-NSP1) WT;human 40S ribosomal subunit;eIF1, eIF1A, eIF5, TC-GMPPNP (eIF2, Met-tRNAi) (SARS-CoV-2;Homo sapiens;Homo sapiens) (UniProt P0DTD1); experiment: single-molecule fluorescence (ZMW)
# [7] = tested on: human 40S ribosomal subunit;eIF1, eIF1A, eIF5, TC-GMPPNP (eIF2, Met-tRNAi) (Homo sapiens;Homo sapiens); experiment: single-molecule fluorescence (ZMW)
# [8] = target: human 40S ribosomal subunit with the ybbR tag on RACK1, biotinylated or Cy5-labelled (human) (UniProt P63244)
# [9] = target: human 40S ribosomal subunit with the ybbR tag on RACK1, biotinylated or Cy5-labelled (human) (UniProt P63244); remark: listed apart in the source
# [10] = target: human 40S ribosomal subunit with the ybbR tag on RACK1, biotinylated or Cy5-labelled (human) (UniProt P63244); remark: listed apart in the source
# [11] = target: human 40S ribosomal subunit with the ybbR tag on RACK1, biotinylated or Cy5-labelled (human) (UniProt P63244); remark: listed apart in the source
# [12] = target: eIF1–40S(biotin) subunit complex (human) (UniProt P41567)
# [13] = target: human 40S ribosomal subunit with the ybbR tag on RACK1, biotinylated or Cy5-labelled (human) (UniProt P63244); remark: listed apart in the source
# [14] = target: human 40S ribosomal subunit with the ybbR tag on uS19, Cy3-labelled (human (endogenous in HEK293T)) (UniProt P62841)
# [15] = target: human 80S ribosome assembled on the CrPV IRES from 40S-ybbR-Cy3 and 60S-ybbR-Cy5 subunits (human (endogenous in HEK293T)) (UniProt P62841)
# UniProt P41567, sequence (P41567 whole entry, looked up, tested part not stated, one chain of several): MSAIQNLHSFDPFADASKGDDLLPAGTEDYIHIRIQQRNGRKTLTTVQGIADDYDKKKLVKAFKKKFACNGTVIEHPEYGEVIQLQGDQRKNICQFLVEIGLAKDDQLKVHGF
substance,measurement,setting,value
GGCCAGCCCCCUGAUGGGGGCGACACUCCACCAUGAAUCACUCCCCUGUGAGGAACUACUGUCUUCACGCAGAAAGCGUCUAGCCAUGGCGUUAGUAUGAGUGUCGUGCAGCCUCCAGGACCCCCCCUCCCGGGAGAGCCAUAGUGGUCUGCGGAACCGGUGAGUACACCGGAAUUGCCAGGACGACCGGGUCCUUUCUUGGAUAAACCCGCUCAAUGCCUGGAGAUUUGGGCGUGCCCCCGCAAGACUGCUAGCCGAGUAGUGUUGGGUCGCGAAAGGCCUUGUGGUACUGCCUGAUAGGGUGCUUGCGAGUGCCCCGGGAGGUCUCGUAGACCGUGCACCAUG [HCV+0],Kd,[1],< 1 nM
same,Kd,[2],< 1 nM
same,binding signal (% 40S events with NSP1),[2],57
same,Kd,[3],< 2 nM
same,binding signal (% complexes bound),[4],11
GGCCAGCCCCCUGAUGGGGGCGACACUCCACCAUGAAUCACUCCCCUGUGAGGAACUACUGUCUUCACGCAGAAAGCGUCUAGCCAUGGCGUUAGUAUGAGUGUCGUGCAGCCUCCAGGACCCCCCCUCCCGGGAGAGCCAUAGUGGUCUGCGGAACCGGUGAGUACACCGGAAUUGCCAGGACGACCGGGUCCUUUCUUGGAUAAACCCGCUCAAUGCCUGGAGAUUUGGGCGUGCCCCCGCAAGACUGCUAGCCGAGUAGUGUUGGGUCGCGAAAGGCCUUGUGGUACUGCCUGAUAGGGUGCUUGCGAGUGCCCCGGGAGGUCUCGUAGACCGUGCACCAUGAGCACG [HCV+6],binding signal (% complexes bound),[2],81
GGCCAGCCCCCUGAUGGGGGCGACACUCCACCAUGAAUCACUCCCCUGUGAGGAACUACUGUCUUCACGCAGAAAGCGUCUAGCCAUGGCGUUAGUAUGAGUGUCGUGCAGCCUCCAGGACCCCCCCUCCCGGGAGAGCCAUAGUGGUCUGCGGAACCGGUGAGUACACCGGAAUUGCCAGGACGACCGGGUCCUUUCUUGGAUAAACCCGCUCAAUGCCUGGAGAUUUGGGCGUGCCCCCGCAAGACUGCUAGCCGAGUAGUGUUGGGUCGCGAAAGGCCUUGUGGUACUGCCUGAUAGGGUGCUUGCGAGUGCCCCGGGAGGUCUCGUAGACCGUGCACCAUGAGCACGAAUCCU [HCV+12],binding signal,[2],0.044 s-1 (kobs)
same,binding signal,[5],0.013 s-1 (kobs)
GGCCAGCCCCCUGAUGGGGGCGACACUCCACCAUGAAUCACUCCCCUGUGAGGAACUACUGUCUUCACGCAGAAAGCGUCUAGCCAUGGCGUUAGUAUGAGUGUCGUGCAGCCUCCAGGACCCCCCCUCCCGGGAGAGCCAUAGUGGUCUGCGGAACCGGUGAGUACACCGGAAUUGCCAGGACGACCGGGUCCUUUCUUGGAUAAACCCGCUCAAUGCCUGGAGAUUUGGGCGUGCCCCCGCAAGACUGCUAGCCGAGUAGUGUUGGGUCGCGAAAGGCCUUGUGGUACUGCCUGAUAGGGUGCUUGCGAGUGCCCCGGGAGGUCUCGUAGACCGUGCACCAUGAGCACGAAUCCUAAACCUCAAAGAAAAACCGCCAGAACCAUGGAAGAC [HCV+48],Kd,[2],> 2000 nM
same,binding signal (% 40S events with NSP1),[2],60
GGUCUCUCUCUCUCUCUCUAUGUUCAAAUAAUCUCUCUCUCUCUCUCUCUCUCUCUCUCUCUC [M+41],binding signal,[6],4 s-1 (koff)
same,binding signal (% complexes bound),[2],16
same,binding signal,[7],0.0038 s-1 (koff)
"SARS-CoV NSP1 with an N-terminal ybbR tag, Cy3-labelled (from UniProt P0C6X7 1-180) (natural protein)",Kd,[8],< 2 nM
same,fraction of IRES–40S complexes bound at least once by NSP1 (≥∼5 s),[8],62%
same,koff,[8],< 0.006 s⁻¹
"SARS-CoV-2 NSP1 with an N-terminal ybbR tag, fluorescently labelled (from UniProt P0DTD1 1-180) (natural protein)",fraction of mRNA–40S complexes bound at least once by NSP1 (≥∼5 s),[9],16%
same,kobs (apparent association rate),[9],< 0.002 s⁻¹
same,Kd,[10],> 3000 nM
same,koff,[10],0.25 s⁻¹
same,Kd,[11],< 1 nM
same,fraction of IRES–40S complexes bound at least once by NSP1 (≥∼5 s),[11],77% and 60%
same,koff,[11],< 0.0043 s⁻¹
same,Kd,[12],< 10 nM
same,koff,[12],0.0042 s⁻¹
same,kon,[12],300000 M⁻¹ s⁻¹
same,kon,[13],3e+06 to 4e+06 M⁻¹ s⁻¹
same,time NSP1 remained bound after association,[14],120 s
same,fraction of traces with an NSP1 binding event,[15],30%
